Measurements taken from patent publication US20190233485A1 (LEIDEN UNIVERSITY MEDICAL CENTER, published 2019).

B1: BOB1245 peptide YALNHTLSV (peptide)
peptide: YALNHTLSV
notes: Bob1-derived peptide from the HLA elution set
B2: BOB1197 peptide APALPGPQF (peptide)
peptide: APALPGPQF
notes: as for B1
B3: BOB144 peptide APAPTAVVL (peptide)
peptide: APAPTAVVL
notes: as for B1
B4: BOB114 peptide APARPYQGV (peptide)
peptide: APARPYQGV
notes: as for B1
B5: TCR of T cell clone 4G11 (TCR-4G11) (TCR, V domains shown)
Valpha: GENVEQHPSTLSVQEGDSAVIKCTYSDSASNYFPWYKQELGKGPQLIIDIRSNVGEKKDQRIAVTLNKTAKHFSLHITETQPEDSAVYFCAASKGSSNTGKLIFGQGTTLQVKP
Vbeta: DTEVTQTPKHLVMGMTNKKSLKCEQHMGHRAMYWYKQKAKKPPELMFVYSYEKLSINESVPSRFSPECPNSSLLNLHLHALQPEDSALYLCASSHGPASYEQYFGPGTRLTVT
B6: TCR of T cell clone 3C10 (TCR, V domains shown)
Valpha: GENVEQHPSTLSVQEGDSAVIKCTYSDSASNYFPWYKQELGKGPQLIIDIRSNVGEKKDQRIAVTLNKTAKHFSLHITETQPEDSAVYFCAASTGGGYSTLTFGKGTMLLVSP
Vbeta: DAGVIQSPRHEVTEMGQEVTLRCKPISGHDYLFWYRQTMMRGLELLIYFNNNVPIDDSGMPEDRFSAKMPNASFSTLKIQPSEPRDSAVYFCASSGQGITLAGANVLTFGAGSRLTVL

Legend:
HLA-A*0201 = target: T1, HLA-A*0201 (human); assay: polypeptides eluted from HLA of HLA-typed EBV-LCLs (HLA elution database); allele as in Table 1
T1 construct: HLA class I molecule on HLA-typed EBV-LCLs from which the polypeptides were eluted; also called HLA-A2

HLA-B*0702 = target: T2, HLA-B*0702 (human); assay: as above
T2 construct: HLA class I molecule on HLA-typed EBV-LCLs from which the polypeptides were eluted; also called HLA-B7

[1] = target: T3, Bob1 (B cell Oct binding protein 1, gene POU2AF1) peptide on HLA-B*07:02 (human); assay: multimer staining
T3 peptide: APAPTAVVL

[2] = target: T4, Bob1 (B cell Oct binding protein 1, gene POU2AF1) peptide on HLA-A*02:01 (human); assay: multimer staining
T4 peptide: YALNHTLSV

| Binder | binding result (HLA-B*0702) | further results |
| --- | --- | --- |
| B1 |  | binding result (HLA-A*0201): binds |
| B2 | binds |  |
| B3 | binds |  |
| B4 | binds |  |
| B5 |  | binding result [1]: recognises |
| B6 |  | binding result [2]: recognises |
